Where “and” joins values, the source holds several entries; their conditions need not be identical. Equal values may be shown once.
Target: human IL-12 receptor on HEK-Blue IL-12 reporter cells (human) (UniProt P42701)
Sequence (Q99665 24-862, chain 2 of 2, other chains not shown): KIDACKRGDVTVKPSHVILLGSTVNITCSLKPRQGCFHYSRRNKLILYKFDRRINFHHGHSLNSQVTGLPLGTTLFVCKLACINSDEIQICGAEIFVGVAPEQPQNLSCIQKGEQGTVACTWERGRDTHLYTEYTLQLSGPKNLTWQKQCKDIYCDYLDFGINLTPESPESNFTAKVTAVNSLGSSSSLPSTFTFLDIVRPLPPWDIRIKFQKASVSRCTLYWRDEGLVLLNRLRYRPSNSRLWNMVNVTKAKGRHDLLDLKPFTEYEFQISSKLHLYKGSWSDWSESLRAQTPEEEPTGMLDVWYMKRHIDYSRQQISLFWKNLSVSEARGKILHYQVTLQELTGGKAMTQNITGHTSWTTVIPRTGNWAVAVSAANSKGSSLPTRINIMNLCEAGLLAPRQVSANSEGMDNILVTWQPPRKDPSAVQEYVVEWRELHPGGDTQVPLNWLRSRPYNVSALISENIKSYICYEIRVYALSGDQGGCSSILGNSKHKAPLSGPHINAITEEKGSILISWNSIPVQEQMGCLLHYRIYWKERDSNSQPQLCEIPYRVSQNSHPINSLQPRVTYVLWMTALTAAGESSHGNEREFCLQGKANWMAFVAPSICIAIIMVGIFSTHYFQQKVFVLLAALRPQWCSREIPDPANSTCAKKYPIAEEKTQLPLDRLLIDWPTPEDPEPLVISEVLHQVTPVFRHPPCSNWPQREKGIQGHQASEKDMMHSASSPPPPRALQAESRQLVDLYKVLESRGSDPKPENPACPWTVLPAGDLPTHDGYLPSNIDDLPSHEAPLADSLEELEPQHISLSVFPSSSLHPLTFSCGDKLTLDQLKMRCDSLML

## IL12 (ligand)
  EC50 (read off the curve): 90 pM and 50 pM
